Columns and labels:
[1] = target: integrin αvβ5 on cells (human) (UniProt P06756); assay: cell-based or functional assay
[2] = target: integrin αvβ3 on cells (human, UniProt P06756 31-1048; P05106 27-788); assay: cell-based or functional assay
[3] = target: integrin receptors on the surface of MDA-MB-435 cells; assay: inhibition of binding of MDA-MB-435 cells to immobilized CN (0.1 µg/well); competitor: immobilized CN
[4] = target: binding sites on human melanoma M24met cells; assay: binding of CN to human melanoma M24met cells, high affinity site
[5] = target: integrin receptors on the surface of MDA-MB-435 cells; assay: cell-based or functional assay
[6] = target: T1, platelet membrane glycoprotein (GP)IIb/IIIa on human platelets (human, UniProt P08514 32-1039; P05106 27-788); assay: Scatchard analysis of CN binding to unactivated human platelets
T1 construct: whole, on cells; also called fibrinogen receptor; αIIbβ3
T1 sequence (P08514 32-1039, chain 1 of 2): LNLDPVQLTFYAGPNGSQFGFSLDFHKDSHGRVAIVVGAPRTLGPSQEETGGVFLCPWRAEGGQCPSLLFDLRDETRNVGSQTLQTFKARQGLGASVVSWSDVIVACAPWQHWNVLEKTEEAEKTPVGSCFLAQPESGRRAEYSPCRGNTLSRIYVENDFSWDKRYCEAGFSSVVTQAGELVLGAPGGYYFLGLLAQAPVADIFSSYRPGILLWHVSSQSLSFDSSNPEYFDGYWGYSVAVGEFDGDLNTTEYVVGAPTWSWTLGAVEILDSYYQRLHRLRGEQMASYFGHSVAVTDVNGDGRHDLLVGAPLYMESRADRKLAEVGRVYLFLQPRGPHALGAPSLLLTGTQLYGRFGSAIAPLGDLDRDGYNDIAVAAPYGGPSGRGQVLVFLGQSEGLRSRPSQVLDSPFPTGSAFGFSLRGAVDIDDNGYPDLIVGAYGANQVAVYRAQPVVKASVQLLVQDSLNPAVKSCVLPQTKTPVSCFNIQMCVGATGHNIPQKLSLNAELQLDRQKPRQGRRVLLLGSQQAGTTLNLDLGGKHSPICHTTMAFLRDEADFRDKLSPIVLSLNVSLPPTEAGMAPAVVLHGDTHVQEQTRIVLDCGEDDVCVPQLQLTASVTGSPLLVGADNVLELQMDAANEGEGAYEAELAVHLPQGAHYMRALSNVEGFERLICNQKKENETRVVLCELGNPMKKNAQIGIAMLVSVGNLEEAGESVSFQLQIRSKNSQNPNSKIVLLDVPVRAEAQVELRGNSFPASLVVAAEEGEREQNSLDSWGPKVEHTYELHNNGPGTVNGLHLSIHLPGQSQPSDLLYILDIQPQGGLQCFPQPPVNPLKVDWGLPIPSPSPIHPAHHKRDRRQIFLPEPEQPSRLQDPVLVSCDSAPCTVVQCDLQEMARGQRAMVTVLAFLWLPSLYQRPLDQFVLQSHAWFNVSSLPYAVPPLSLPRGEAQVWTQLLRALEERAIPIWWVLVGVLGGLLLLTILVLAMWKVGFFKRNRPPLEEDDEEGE
T1 sequence (P05106 27-788, chain 2 of 2): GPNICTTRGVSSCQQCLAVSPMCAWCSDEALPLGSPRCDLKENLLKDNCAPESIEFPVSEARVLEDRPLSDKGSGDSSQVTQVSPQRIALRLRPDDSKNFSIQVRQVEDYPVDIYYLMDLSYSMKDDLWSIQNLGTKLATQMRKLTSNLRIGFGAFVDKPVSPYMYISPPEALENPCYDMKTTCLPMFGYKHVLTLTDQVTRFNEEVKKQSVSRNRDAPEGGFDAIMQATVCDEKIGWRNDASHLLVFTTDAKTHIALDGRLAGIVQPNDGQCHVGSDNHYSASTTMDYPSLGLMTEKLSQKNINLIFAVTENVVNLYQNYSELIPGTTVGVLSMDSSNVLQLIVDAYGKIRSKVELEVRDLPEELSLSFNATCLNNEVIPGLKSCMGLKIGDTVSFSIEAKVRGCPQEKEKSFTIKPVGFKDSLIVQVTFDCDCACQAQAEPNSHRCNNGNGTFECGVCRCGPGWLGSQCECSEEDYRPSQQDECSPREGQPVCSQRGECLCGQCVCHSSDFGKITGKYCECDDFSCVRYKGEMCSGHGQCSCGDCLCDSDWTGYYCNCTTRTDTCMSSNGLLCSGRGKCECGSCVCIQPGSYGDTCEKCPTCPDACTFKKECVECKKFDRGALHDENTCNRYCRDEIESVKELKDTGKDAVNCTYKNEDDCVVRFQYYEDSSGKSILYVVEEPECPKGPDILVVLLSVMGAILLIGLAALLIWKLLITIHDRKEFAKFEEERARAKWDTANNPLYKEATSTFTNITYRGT

[7] = target: binding sites on human melanoma M24met cells; assay: binding of CN to human melanoma M24met cells, lower affinity site
[8] = target: T1, platelet membrane glycoprotein …

Chain of integrin αvβ3 on cells (P06756 31-1048, chain 1 of 2): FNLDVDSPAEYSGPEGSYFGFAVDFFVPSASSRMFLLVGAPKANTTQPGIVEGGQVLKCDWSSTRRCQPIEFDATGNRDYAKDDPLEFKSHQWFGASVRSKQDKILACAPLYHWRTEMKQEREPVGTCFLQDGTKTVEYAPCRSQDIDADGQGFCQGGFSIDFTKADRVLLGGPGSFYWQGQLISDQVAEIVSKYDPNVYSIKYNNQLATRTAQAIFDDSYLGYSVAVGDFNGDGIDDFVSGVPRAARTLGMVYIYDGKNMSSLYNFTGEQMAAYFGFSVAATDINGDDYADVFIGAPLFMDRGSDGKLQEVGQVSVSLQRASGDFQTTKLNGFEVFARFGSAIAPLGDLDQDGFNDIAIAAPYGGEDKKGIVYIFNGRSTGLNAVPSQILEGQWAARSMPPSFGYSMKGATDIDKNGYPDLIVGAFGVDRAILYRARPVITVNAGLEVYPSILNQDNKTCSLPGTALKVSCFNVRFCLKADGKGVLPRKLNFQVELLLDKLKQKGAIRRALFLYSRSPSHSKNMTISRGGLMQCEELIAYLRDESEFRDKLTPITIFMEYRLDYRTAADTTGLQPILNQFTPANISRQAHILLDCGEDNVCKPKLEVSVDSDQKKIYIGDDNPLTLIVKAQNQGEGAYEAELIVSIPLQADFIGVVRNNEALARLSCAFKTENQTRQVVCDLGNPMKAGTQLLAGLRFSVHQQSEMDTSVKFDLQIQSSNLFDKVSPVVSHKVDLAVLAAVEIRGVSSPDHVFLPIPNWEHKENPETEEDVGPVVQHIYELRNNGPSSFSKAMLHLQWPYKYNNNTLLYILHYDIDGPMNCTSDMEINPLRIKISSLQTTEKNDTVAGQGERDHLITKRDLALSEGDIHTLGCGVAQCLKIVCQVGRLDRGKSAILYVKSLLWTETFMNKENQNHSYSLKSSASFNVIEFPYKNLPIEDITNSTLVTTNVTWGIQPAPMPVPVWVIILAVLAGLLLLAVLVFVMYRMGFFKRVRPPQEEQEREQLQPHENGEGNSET
Chain of integrin αvβ3 on cells (P05106 27-788, chain 2 of 2): as the sequence (P05106 27-788, chain 2 of 2) above
Chain of integrin αvβ5 on cells (human) (P06756 31-1048, chain 1 of 2): as the sequence (P06756 31-1048, chain 1 of 2) above
Chain of integrin αvβ5 on cells (human) (P18084 24-799, chain 2 of 2, further chain): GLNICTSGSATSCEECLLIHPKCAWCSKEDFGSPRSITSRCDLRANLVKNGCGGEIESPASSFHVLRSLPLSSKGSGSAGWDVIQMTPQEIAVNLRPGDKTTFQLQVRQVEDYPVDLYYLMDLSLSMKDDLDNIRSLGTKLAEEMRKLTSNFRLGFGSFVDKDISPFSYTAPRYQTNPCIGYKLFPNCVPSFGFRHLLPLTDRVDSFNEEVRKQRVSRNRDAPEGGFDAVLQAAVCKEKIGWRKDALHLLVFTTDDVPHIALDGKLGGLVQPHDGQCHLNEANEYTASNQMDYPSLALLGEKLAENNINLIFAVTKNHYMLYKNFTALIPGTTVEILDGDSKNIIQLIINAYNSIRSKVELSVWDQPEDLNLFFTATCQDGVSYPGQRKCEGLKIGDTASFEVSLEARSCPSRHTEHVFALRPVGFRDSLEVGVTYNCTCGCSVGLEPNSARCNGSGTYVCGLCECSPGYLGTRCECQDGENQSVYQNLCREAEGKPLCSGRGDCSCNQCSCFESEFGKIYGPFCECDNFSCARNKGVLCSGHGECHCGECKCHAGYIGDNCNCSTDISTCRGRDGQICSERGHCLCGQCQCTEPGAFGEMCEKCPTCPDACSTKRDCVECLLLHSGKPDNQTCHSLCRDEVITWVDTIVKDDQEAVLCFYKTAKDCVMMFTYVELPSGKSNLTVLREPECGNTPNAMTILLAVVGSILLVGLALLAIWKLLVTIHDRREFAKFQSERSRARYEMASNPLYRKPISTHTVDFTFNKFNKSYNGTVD

In the case of P1F6 monoclonal antibody, the inhibition of adhesion of T24-β3 neg. cells to immobilized vitronectin [1] is reported as 80% and the inhibition of adhesion of T24 cells to immobilized vitronectin [1] is reported as less than 40%.

7E3 murine monoclonal antibody gave a maximum inhibition of adhesion of T24 cells to immobilized vitronectin [2] of less than 40%.

Work on GRGDSP [RGD peptide GRGDSP] yielded an IC50 [3] of 400000 nM.

B1: contortrostatin (ligand)
chain: DAPANPCCDAATCKLTTGSQCADGLCCDQCKFMKEGTVCRRARGDDLDDYCNGISAGCPRNPFHA
notes: also called CN; homodimeric disintegrin
For B1, the “IC50 for inhibition of adhesion of MDA-MB-435 cells to immobilized vitronectin” value [2] was 1.5 nM, the Kd [4] was 1.1 nM and the sites per cell (sites per cell) [4] was 96000. The IC50 for inhibition of adhesion of MDA-MB-435 cells to immobilized fibronectin [5] was 18 nM, the Kd [6] was 37 nM and the Kd [7] was 41 nM. For the same molecule, the sites per cell (sites per cell) [7] was 480000 and the IC50 [8] was 25 nM.

Source: patent US20040132659A1 (UNIVERSITY OF SOUTHERN CALIFORNIA, published 2004)
